Experimental data published in patent publication US20210261665A1 (TAYU HUAXIA BIOTECH MEDICAL GROUP, published 2021).

What was measured:
human PD-1 on cells [1] = biological target: T1, human PD-1 on cells (human, UniProt Q15116 25-288); assay: cell-based or functional assay
hPD-1 mIg fusion protein [2] = biological target: T2, hPD-1 mIg fusion protein (human; mouse, UniProt Q15116 25-170); assay: SPR Biacore T100, hPD-1mIg immobilised by amine coupling, antibody as analyte
T2 construct: extracellular domain; not shown: CH2-CH3 domain of mouse IgG2a heavy chain (plasmid pmIgG)
Protocol: Binding affinity and kinetics determination of the humanized antibodies: The binding affinity and kinetics of the humanized PD-1 mAbs interact with hPD-1 protein was assessed with Biacore T100 (GE Healthcare Life Sciences). […] Nine different concentrations were tested for each sample. Detailed binding kinetic parameters (association rate, Ka, dissociation rate, Kd, and affinity constant, KD) can be determined by full kinetic analysis.

hPD-1 mIg fusion protein [3] = biological target: T2, hPD-1 mIg fusion protein; assay: SPR Biacore T200, hPD-1 mIg immobilised at low level, antibody as analyte; reference pembrolizumab and nivolumab
Protocol: Antibody binding affinity and kinetics: The affinity and kinetics of theTY101 was analyzed using the Biacore T200 instrument (GE Healthcare Life Sciences) and compared with two commercial antibodies.

[4] = biological target: T3, cynomolgus monkey PD-1 on cells (cynomolgus monkey, UniProt B0LAJ3 25-288); assay: flow cytometry on CHOK1-cPD-1 cells
T3 construct: also called cPD-1; CHOK1-cPD-1

human PD-1 on cells [5] = biological target: T1, human PD-1 on cells; assay: flow cytometry on CHOK1-hPD-1 cells
[6] = biological target: hPD-1 protein (ELISA coat) (human, UniProt Q15116 25-167, limits assumed); assay: ELISA against hPD-1 ECD-Fc protein (plate coat)
Protocol: (§1) The bindings of the antibodies to hPD-1 and the cross-reactivity to mPD-1 proteins were tested by ELISA. A serial dilution of test antibodies were added to ELISA plates pre-coated with 1 μg/ml hPD-1 or mPD-1. HRP conjugated goat anti-human IgG or goat anti-mouse IgG antibody was then added, followed by the addition of substrate Tetramethylbenzidine (TMB) and quantification with a SpectraMax Plus 384 Microplate Reader (Molecular Device, LLC., Sunnyvale, Calif.) at 450 nm wavelength.

[7] = biological target: T4, mPD-1 protein (ELISA coat) (mouse, UniProt Q02242 25-167, limits assumed); assay: ELISA against mPD-1 ECD-Fc protein (plate coat)
T4 sequence (looked up): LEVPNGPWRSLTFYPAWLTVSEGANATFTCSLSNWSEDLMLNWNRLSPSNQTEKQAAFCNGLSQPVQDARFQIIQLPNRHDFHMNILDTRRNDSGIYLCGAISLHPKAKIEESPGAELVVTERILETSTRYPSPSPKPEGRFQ
Protocol: as §1

human PD-1 on cells [8] = biological target: T1, human PD-1 on cells; assay: cell based RBA (flow cytometry): blocking of Biotin-hPD-L1 binding to CHOK1-hPD-1 cells
Protocol: (§2) The cells were then incubated with Alexa 488 labeled Streptavidin and analyzed using a FACSCanto II.

human PD-1 on cells [9] = biological target: T1, human PD-1 on cells; assay: cell based RBA (flow cytometry): blocking of Biotin-hPD-L2 binding to CHOK1-hPD-1 cells
Protocol: as §2

Biotin-hPD-1 [10] = biological target: T5, Biotin-hPD-1 (human, UniProt Q15116 25-167, limits assumed, biotin label, site not stated); assay: competitive ELISA: competitive Ab 15 µg/ml with Biotin-hPD-1; coating Ab Nivolumab 1 µg/ml
Protocol: (§3) A serial dilution of competing antibodies and Biotin-hPD-1 were added to ELISA plates pre-coated with 1 μg/ml a test antibody. HRP conjugated streptavidin was then added, followed by the addition of substrate TMB and quantification with a SpectraMax Plus 384 Microplate Reader at 450 nm wavelength.

Biotin-hPD-1 [11] = biological target: T5, Biotin-hPD-1; assay: competitive ELISA: competitive Ab 15 µg/ml with Biotin-hPD-1; coating Ab TY101-4G1 1 µg/ml
Protocol: as §3

Biotin-hPD-1 [12] = biological target: T5, Biotin-hPD-1; assay: competitive ELISA: competitive Ab 15 µg/ml with Biotin-hPD-1; coating Ab TY101-01-09 1 µg/ml
Protocol: as §3

Biotin-hPD-1 [13] = biological target: T5, Biotin-hPD-1; assay: competitive ELISA: competitive Ab 15 µg/ml with Biotin-hPD-1; coating Ab Pembrolizumab 1 µg/ml
Protocol: as §3

Biotin-hPD-1 [14] = biological target: T5, Biotin-hPD-1; assay: competitive ELISA: competitive Ab 15 µg/ml with Biotin-hPD-1; coating Ab TY101-04-T3-05 1 µg/ml
Protocol: as §3

Human PD-1 ECD protein [15] = biological target: T6, Human PD-1 ECD protein (human, UniProt Q15116 25-170); assay: SPR, Biacore T200, hPD-1 ECD immobilised at the low level (60 RU), antibody as analyte, 1:1 fit [lower left]
T6 construct: extracellular domain; also called hPD-1; recombinant hPD-1
Protocol: (§4) Human PD-1 ECD protein was immobilized on CMS sensor chip for different length of time to achieve low immobilization level (at 60 RU) in flow cell 3 and high immobilization level (960 RU) in flow cell 4. […] After signals of both the reference (flow cell 1) and the zero concentrations being subtracted from that of samples, binding kinetics was calculated using Biacore T200 evaluation software version 1.0 and a 1:1 binding model for curve fitting.

Human PD-1 ECD protein [16] = biological target: T6, Human PD-1 ECD protein; assay: SPR, Biacore T200, hPD-1 ECD immobilised at the high level (960 RU), antibody as analyte, 1:1 fit; kd and KD printed as '*', no visible dissociation over 1500 s [lower right]
Protocol: as §4

human PD-1 on cells [17] = biological target: T1, human PD-1 on cells; assay: flow cytometry on CHO/hPD-1 cells, anti-mIgG-APC
Protocol: CHO/hPD-1 cells were incubated anti-PD-1 mAbs on ice. After incubation, the cells were washed and further incubated with anti-mIgG-APC (eBiosciences). Flow cytometry analysis was performed using a FACSVerse (BD Biosciences). […] These cells were also stained with their respective positive antibodies respectively as positive control.

T5 sequence (Q15116 25-167 limits assumed): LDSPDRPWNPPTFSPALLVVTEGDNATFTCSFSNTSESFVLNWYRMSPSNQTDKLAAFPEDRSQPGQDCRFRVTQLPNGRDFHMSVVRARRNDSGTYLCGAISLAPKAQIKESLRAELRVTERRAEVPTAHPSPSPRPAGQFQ
T1 sequence (Q15116 25-288): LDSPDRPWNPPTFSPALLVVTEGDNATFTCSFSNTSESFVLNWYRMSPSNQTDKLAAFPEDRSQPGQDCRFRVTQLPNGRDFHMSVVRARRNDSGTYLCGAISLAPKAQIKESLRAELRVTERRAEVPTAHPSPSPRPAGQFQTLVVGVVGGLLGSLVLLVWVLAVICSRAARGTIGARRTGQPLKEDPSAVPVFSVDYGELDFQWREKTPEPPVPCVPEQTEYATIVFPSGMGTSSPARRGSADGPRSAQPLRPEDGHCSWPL
T6 sequence (Q15116 25-170): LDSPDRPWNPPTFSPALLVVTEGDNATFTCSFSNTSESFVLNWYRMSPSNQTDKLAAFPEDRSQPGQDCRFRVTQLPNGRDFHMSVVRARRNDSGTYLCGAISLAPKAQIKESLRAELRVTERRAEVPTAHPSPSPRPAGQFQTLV
T2 sequence (Q15116 25-170): as above
Sequence of hPD-1 protein (ELISA coat) (Q15116 25-167 limits assumed): as the sequence (Q15116 25-167 limits assumed) above
T3 sequence (B0LAJ3 entry or part of it limits assumed): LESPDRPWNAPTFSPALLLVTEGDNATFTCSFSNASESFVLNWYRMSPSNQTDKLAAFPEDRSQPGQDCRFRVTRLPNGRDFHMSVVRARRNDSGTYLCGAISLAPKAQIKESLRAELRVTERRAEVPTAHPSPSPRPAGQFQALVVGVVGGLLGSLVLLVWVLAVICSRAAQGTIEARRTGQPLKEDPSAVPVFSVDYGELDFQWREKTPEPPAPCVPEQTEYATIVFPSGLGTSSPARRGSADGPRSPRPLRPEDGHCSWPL

B1: Variant 3 (TY101) (antibody, V domains shown)
VH: EVQLVESGGGLVQPGGSLRLSCAASGFTFSSYTMSWVRQAPGKGLEWVSYISHGGGDTYYADSVKGRFTISRDNSKNTLYLQMNSLRAEDTAVYYCARHSGYERGYYYVMDYWGQGTLVTVSS
VL: DIQLTQSPDSLSVSLGERATINCKASESVDYYGFSFLNWFQQKPGQPPKLLIYAASNRQSGVPDRFSGSGSGTDFTLTISSLQAEDVAVYFCQQSKEVPWTFGQGTKLEIKR
notes: Humanized; VH variant a, VK variant c; Constant regions not spelled out; chimeric parent has human IgG4-S228P and human kappa; also called mutant combination 3
With B1 the “EC50; luciferase RLU of Jurkat-PD1 cells stimulated with CHO-PD-L1 cells (PD-1/PD-L1 Blockade Bioassay)” value (human PD-1 on cells [1]) was 0.224 µg/mL, the Kd (hPD-1 mIg fusion protein [2]) was 0.0963 nM and the koff (hPD-1 mIg fusion protein [2]) was 2.33e-05 s⁻¹. The kon (hPD-1 mIg fusion protein [2]) was 242000 M⁻¹ s⁻¹ and the “fold slower dissociation rate Kd than the two commercial antibodies” value (hPD-1 mIg fusion protein [3]) was 10 fold.

B2: TY101-04-T3-05 (antibody, V domains shown)
VH: EVQLVESGGGLVQPGGSLRLSCAASGFTFSSYTMSWVRQAPGKGLEWVSYISHGGGDTYYADSVKGRFTISRDNSKNTLYLQMNSLRAEDTAVYYCARHSGYERGYYYVMDYWGQGTLVTVSS
VL: DIQLTQSPDSLSVSLGERATINCKASESVDYYGFSFLNWFQQKPGQPPKLLIYAASNRQSGVPDRFSGSGSGTDFTLTISSLQAEDVAVYFCQQSKEVPWTFGQGTKLEIKR
notes: also called TY101 clone TY101-04-T3-05
For B2, the EC50 [4] was 1.19 nM, the “Max MFI” value [4] was 22100 and the EC50 (human PD-1 on cells [5]) was 0.87 nM. For the same binder, the “Max MFI” value (human PD-1 on cells [5]) was 23900, the EC50 [6] was 0.14 nM and the “Max OD450” value [6] was 3.03. For the same binder, the “Max OD450” value [7] was 0.92, the binding result [7] was “no binding (tested: 100 nM)” and the IC50 (human PD-1 on cells [8]) was 1.3 nM. For the same binder, the Inhibition rate (human PD-1 on cells [8]) was 99.5%, the IC50 (human PD-1 on cells [9]) was 1.52 nM and the Inhibition rate (human PD-1 on cells [9]) was 95.3%. The “Inhibition (%)” value (Biotin-hPD-1 [10]) was 94%, the “Inhibition (%)” value (Biotin-hPD-1 [11]) was 95% and the “Inhibition (%)” value (Biotin-hPD-1 [12]) was 94%. The “Inhibition (%)” value (Biotin-hPD-1 [13]) was 94%, the “Inhibition (%)” value (Biotin-hPD-1 [14]) was 95% and the Kd (Human PD-1 ECD protein [15]) was 0.132 nM. The koff (Human PD-1 ECD protein [15]) was 1.89e-05 s⁻¹, the kon (Human PD-1 ECD protein [15]) was 143000 M⁻¹ s⁻¹ and the kon (Human PD-1 ECD protein [16]) was 210000 M⁻¹ s⁻¹.

B3: Murine Ab2 (antibody, mouse IgG1, V domains shown)
VH: QVQLQQSGAELARPGASVKMSCKASGYTFTSYTMHWVKQRPGQGLEWIGYINPTTGYTNYNQKFKDKATLTADKSSSTAYMQLSSLTSEDSAVYYCARDDAYYSGYWGQGTTLTVSS
VL: DIQMTQSPASLSVSVGETVTITCRASENIYSNLAWYRQKQGKSPQLLVYAAKNLADGVPSRFSGSGSGTQYSLKINSLQSEDFGSYYCQHFWGTPWTFGGGTKLEIKR
notes: also called anti-hPD-1 mAb 2
B3: binds (human PD-1 on cells [17]).
